Results from patent US8846873B2, “Antibodies directed to GPNMB and uses thereof” (Celldex Therapeutics, Inc., priority 2004, dated 2014).

T1: GPNMB (Homo sapiens, UniProt Q14956)
T1 construct: made in house; host or cells: HEK 293
T1 sequence (Q14956 23-492): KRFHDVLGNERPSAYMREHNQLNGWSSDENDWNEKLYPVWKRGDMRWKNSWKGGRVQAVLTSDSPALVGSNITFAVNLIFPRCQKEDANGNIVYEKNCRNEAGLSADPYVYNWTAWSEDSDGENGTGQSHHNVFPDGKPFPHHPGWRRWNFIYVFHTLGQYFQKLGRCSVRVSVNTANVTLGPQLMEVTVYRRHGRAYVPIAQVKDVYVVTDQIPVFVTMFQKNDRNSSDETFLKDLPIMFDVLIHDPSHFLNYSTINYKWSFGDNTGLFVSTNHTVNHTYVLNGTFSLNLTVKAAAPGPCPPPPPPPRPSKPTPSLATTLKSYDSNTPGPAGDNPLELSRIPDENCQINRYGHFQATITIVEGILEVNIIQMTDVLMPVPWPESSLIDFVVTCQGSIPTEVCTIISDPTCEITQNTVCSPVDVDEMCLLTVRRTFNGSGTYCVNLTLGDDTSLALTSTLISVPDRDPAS


Legend:
GPNMB [1] = biological target: T1, GPNMB; experiment: BiaCore 2000 biosensor binding of hybridoma supernatant mAb to GPNMB; conditions: mAb captured on protein A, GPNMB 880 nM, 1:1 kinetic model
Method: Certain Hybridoma cell supernatants (29) were analyzed for binding to GPNMB by BiaCore® 2000 biosensor equipped with a research-grade CMS sensor chip. A 1:25 dilution of cell supernatant was passed over a protein A surface for 5 min followed by washing the surface for 10 mins. Subsequently, GPNMB was injected for 90 sec. over the surface at a concentration of 880 nM followed by dissociation. Double-referenced binding data were obtained by subtracting the signal from a control flow cell and subtracting the baseline drift of a buffer injected just prior to the antigen injection. GPNMB binding ddata for each mAb was normalized for the amount of mAb captured on each surface. Normalized, drift corrected responses were also measured. The sensorgrams were fit to a simple 1:1 kinetic model.

GPNMB [2] = biological target: T1, GPNMB; experiment: Binning of antibodies (Luminex competitive binding); conditions: three bins of six anti-GPNMB antibodies
Method: Certain antibodies, described herein were binned in accordance with the protocol described in U.S. Patent Application Publication No. 20030157730. MxhIgG conjugated beads are prepared for coupling to primary antibody. The volume of supernatant needed is calculated using the following formula: (n+10)×50 μL (where n=total number of samples on plate). Where the concentration is known, 0.5 μg/mL is used. Bead stock is gently vortexed, then diluted in supernatant to a concentration of 2500 of each bead per well or 0.5×10^5/mL and incubated on a shaker in the dark at RT overnight, or 2 hours if at a known concentration of […]. Following aspiration, 50 μL of each bead is added to each well of filter plate, then washed once by adding 100 μL/well wash buffer and aspirating. Antigen and controls are added to filter plate 50 μL/well then covered and allowed to incubate in the dark for 1 hour on shaker. Following a wash step, a secondary unknown antibody is added at 50 μL/well using the same dilution (or concentration if known) as is used for the primary antibody. The plates are then incubated in the dark for 2 hours at RT on shaker followed by a wash step. Next, 50 μL/well biotinylated mxhIgG diluted 1:500 is added and allowed to incubate in the dark for 1 hour on shaker at RT. […]

[3] = tested on: normal and tumor human tissue microarrays; experiment: GPNMB immunohistochemistry (IHC) analysis
Method: Anti-GPNMB monoclonal antibodies were evaluated for reactivity with frozen and fixed tissue specimens. Tissue sections (5 μm) were cut from formalin fixed and paraffin embedded tissue samples and were rehydrated through incubations in xylene and a graded ethanol series terminating in PBS. Endogenous peroxidase activity was quenched in a 3% solution of hydrogen peroxide in methanol.
Tissue sections were blocked in blocking buffer (5% BSA (Sigma), 1% goat serum (Jackson Immunolabs, West Grove, Pa.) in PBS) for 1 hour. Primary and secondary antibodies were precomplexed in 5% BSA and 1% goat serum in PBS for 1 hour at 37° C. at a molar ratio of approximately 10:1 of anti-GPNMB or control IgG to secondary biotinylated goat anti-human IgG (Jackson Immunolabs). Complexes were blocked with a 1:2000 dilution of human serum and incubated again for 1 hour at 37° C. Tissue sections were incubated with anti-GPNMB antibody or isotype control antibody complexes diluted in blocking buffer for 1 hour. Sections were washed in 3 changes of PBS for 5 to 10 minutes each and incubated with a 1:200 dilution of streptavidin conjugated horseradish peroxidase (Jackson Immunolabs) in blocking buffer for 30 minutes and then washed as before. Antibody was detected using DAB reagent (Vector labs). […]

TK10 cells = experiment: FACS anti-GPNMB staining; assay type: binding, human; conditions: primary antibody 1 μg/mL
GPNMB [4] = biological target: T1, GPNMB; experiment: ELISA of hybridoma supernatants for binding to GPNMB
Method: After 14 days of culture, hybridoma supernatants were screened for GPNMB specific monoclonal antibodies. In the Primary screen, the ELISA plates (Fisher, Cat. No. 12-565-136) were coated with 50 μL/well of GPNMB (1 μg/mL) in Coating Buffer (0.1 M Carbonate Buffer, pH 9.6, NaHCO3 8.4 g/L), then incubated at 4° C. overnight. After incubation, the plates were washed with Washing Buffer (0.05% Tween 20 in PBS) three times. 200 μL/well Blocking Buffer (0.5% BSA, 0.1% Tween 20, 0.01% Thimerosal in 1×PBS) were added and the plates were incubated at room temperature for 1 h. After incubation, the plates were washed with Washing Buffer three times. Aliquots (50 μL/well) of hybridoma supernatants and positive and negative controls were added, and the plates were incubated at room temperature for 2 h. The positive control used throughout was serum from the relevant GPNMB immunized XenoMouse® mouse and the negative control was serum from the KLH-immunized relevant strain of XenoMouse® mouse. After incubation, the plates were washed three times with Washing Buffer. 100 μL/well of detection antibody goat anti-huIgGfc-HRP (Caltag, Cat. No. H10507, using concentration was 1:2000 dilution) was added and the plates were incubated at room temperature for 1 hour. After incubation, the plates were washed three times with Washing Buffer. 100 μl/well of TMB (BioFX Lab. Cat. No. TMSK-0100-01) was added, and the plates were allowed to develop for about 10 minutes (until negative control wells barely started to show color). 50 μl/well stop solution (TMB Stop Solution (BioFX Lab. Cat. No. STPR-0100-01) was then added and the plates were read on an ELISA plate reader at a wavelength of 450 nm.
Hybridoma supernatants were screened for binding to GPNMB by ELISA as described above in Example 2.

Row | Kd (GPNMB [1]) | ka (GPNMB [1]) | kd (GPNMB [1]) | Bin (GPNMB [2]) | Avg OD (GPNMB [4]; 12.3 ng/mL) | Avg OD (GPNMB [4]; 37 ng/mL) | Avg OD (GPNMB [4]; 111 ng/mL) | Avg OD (GPNMB [4]; 333 ng/mL) | Avg OD (GPNMB [4]; 1 μg/mL) | Avg OD (GPNMB [4]; 3 μg/mL) | Molecule | staining of tissue specimens [3] | Geo Mean Ratio of anti-GPNMB Staining (relative to pK16) (TK10 cells)
1 | 118 nM | 3955 M⁻¹ s⁻¹ | 0.000466 s⁻¹ | – | – | – | – | – | – | – | Mab1.10.2: human anti-GPNMB antibody; VH SEQ ID NO: 2, VL SEQ ID NO: 11 (antibody, listed as Homo sapiens, V domains shown) VH: QVQLQESGPGLVKPSETLSLTCTVSGDSISNYYWSWIRQPPGKGLEWIGYFYYSGSTNYNPSLKSRVTISVDTSKNQFSLKLSSVTAADTAVYYCARDRGWADYWGQGTLVTVSSA VL: EIVLTQSPGTLSLSPGERATLSCRTSQSISSSYLAWYQQKPGQVPRLLIYGASSRATGIPDRFSGSGSGTDFTLTISRLEPEDFAVYYCQQYGSSITFGQGTRLEIKR | – | –
2 | – | – | – | Bin 1 | – | – | – | – | – | – | Mab2.22.1: human anti-GPNMB antibody; VH SEQ ID NO: 164, VL SEQ ID NO: 173 (antibody, listed as Homo sapiens, V domains shown) VH: QVQLEQSGPGLVKPSQNLSLTCTVSGGSISSGGYFWSWIRQHPGKGLEWIGYIYYSGNTYYNPSLKSRVTISVDTSKNQFSLKLSSVTAADTAVYYCARDYYYDTSGFSYRYDWYYGMDVWGQGTTVTVSSA VL: DIQLTQSPSSLSASVGDRVTITCRASQGIRNDLGWYQQKPGKAPKRLIYAASSLQNGVPSRFSGSGSGTEFTLTISSLQPEDFATYYCLQHNTYPAFGQGTKVEIKR | Positive staining | 1.10
3 | 96 nM | 9257 M⁻¹ s⁻¹ | 0.00089 s⁻¹ | – | 0.049 | 0.094 | 0.199 | 0.356 | 0.499 | 0.763 | Mab1.2.2: human anti-GPNMB antibody; VH SEQ ID NO: 38, VL SEQ ID NO: 47 (antibody, listed as Homo sapiens, V domains shown) VH: ITLKESGPTLVKPTQTLTLTCTFSGFSLSAGGVGVGWIRQPPGKALEWLALIYWNDDKRYSPSLRSRLTITKDTSKNQVVLTITNMDPVDTATYYCAHSHYDYDWGSYFDYWGQGTLVTVSSA VL: DIVMTQTPLSLPVTPGEPASISCRSSQSLLDSDDGNTYLDWYLQKPGQSPQLLIYTLSYRASGVPDRFSGSGSGTDFTLNISRVEAEDVGVYYCMQRIEFPITFGQGTRLEIKR | – | 0.98
4 | 122 nM | 11842 M⁻¹ s⁻¹ | 0.00144 s⁻¹ | – | – | – | – | – | – | – | Mab1.7.1: human anti-GPNMB antibody; VH SEQ ID NO: 56, VL SEQ ID NO: 65 (antibody, listed as Homo sapiens, V domains shown) VH: QVQLQESGPGLVKPSQTLSLTCTVSGGSISSANYYWTWIRQHPGKGLEWIGYIYYSGSTYCNPSLKSRVIISVDTSKNQFSLKLSSVTAADTAVYYCARGYNWNYFDYWGQGTLVTVSSA VL: DIVMTQSPATLSVSPGERATLSCRASQSVSSNLAWYQERPGQAPRLLIYGASTRATGIPARFSGSGSGTEFTLTISSLQSEDFAVYYCQQYNKWPPWTFGQGTKVEIER | – | –
